Positions of bridges follow the written chain, without caps; N, C: chain ends.

The results in this text go back to US11965039B2, “Compstatin analogues and their medical uses” (priority 2018, dated 2024).

Sequences and labels used below:
B1: Compound 27 (peptide)
peptide: Ac-ICIWQDWGEHRCEGE-NH2
modifications: disulfide 2-12
SMILES: CC[C@H](C)[C@H](NC(C)=O)C(=O)N[C@H]1CSSC[C@@H](C(=O)N[C@@H](CCC(=O)O)C(=O)NCC(=O)N[C@@H](CCC(=O)O)C(N)=O)NC(=O)[C@H](CCCNC(=N)N)NC(=O)[C@H](Cc2c[nH]cn2)NC(=O)[C@H](CCC(=O)O)NC(=O)CNC(=O)[C@H](Cc2c[nH]c3ccccc23)NC(=O)[C@H](CC(=O)O)NC(=O)[C@H](CCC(N)=O)NC(=O)[C@H](Cc2c[nH]c3ccccc23)NC(=O)[C@H]([C@@H](C)CC)NC1=O
B2: Compound 36 (peptide)
peptide: Ac-ESEICIWQDWGEHRCEGE-NH2
modifications: disulfide 5-15
SMILES: CC[C@H](C)[C@@H]1NC(=O)[C@@H](NC(=O)[C@@H](NC(=O)[C@H](CCC(=O)O)NC(=O)[C@H](CO)NC(=O)[C@H](CCC(=O)O)NC(C)=O)[C@@H](C)CC)CSSC[C@@H](C(=O)N[C@@H](CCC(=O)O)C(=O)NCC(=O)N[C@@H](CCC(=O)O)C(N)=O)NC(=O)[C@H](CCCNC(=N)N)NC(=O)[C@H](Cc2c[nH]cn2)NC(=O)[C@H](CCC(=O)O)NC(=O)CNC(=O)[C@H](Cc2c[nH]c3ccccc23)NC(=O)[C@H](CC(=O)O)NC(=O)[C@H](CCC(N)=O)NC(=O)[C@H](Cc2c[nH]c3ccccc23)NC1=O
B3: Compound 26 (peptide)
peptide: Ac-ICIWQDWGEHRCTE-NH2
modifications: disulfide 2-12
SMILES: CC[C@H](C)[C@H](NC(C)=O)C(=O)N[C@H]1CSSC[C@@H](C(=O)N[C@H](C(=O)N[C@@H](CCC(=O)O)C(N)=O)[C@@H](C)O)NC(=O)[C@H](CCCNC(=N)N)NC(=O)[C@H](Cc2c[nH]cn2)NC(=O)[C@H](CCC(=O)O)NC(=O)CNC(=O)[C@H](Cc2c[nH]c3ccccc23)NC(=O)[C@H](CC(=O)O)NC(=O)[C@H](CCC(N)=O)NC(=O)[C@H](Cc2c[nH]c3ccccc23)NC(=O)[C@H]([C@@H](C)CC)NC1=O
B4: Compound 33 (peptide)
peptide: Ac-EICIWQDWGEHRCTE-NH2
modifications: disulfide 3-13
SMILES: CC[C@H](C)[C@@H]1NC(=O)[C@@H](NC(=O)[C@@H](NC(=O)[C@H](CCC(=O)O)NC(C)=O)[C@@H](C)CC)CSSC[C@@H](C(=O)N[C@H](C(=O)N[C@@H](CCC(=O)O)C(N)=O)[C@@H](C)O)NC(=O)[C@H](CCCNC(=N)N)NC(=O)[C@H](Cc2c[nH]cn2)NC(=O)[C@H](CCC(=O)O)NC(=O)CNC(=O)[C@H](Cc2c[nH]c3ccccc23)NC(=O)[C@H](CC(=O)O)NC(=O)[C@H](CCC(N)=O)NC(=O)[C@H](Cc2c[nH]c3ccccc23)NC1=O
B5: Compound 37 (peptide)
peptide: Ac-KEKICIWQDWGEHRCTEKE-NH2
modifications: disulfide 5-15
SMILES: CC[C@H](C)[C@@H]1NC(=O)[C@@H](NC(=O)[C@@H](NC(=O)[C@H](CCCCN)NC(=O)[C@H](CCC(=O)O)NC(=O)[C@H](CCCCN)NC(C)=O)[C@@H](C)CC)CSSC[C@@H](C(=O)N[C@H](C(=O)N[C@@H](CCC(=O)O)C(=O)N[C@@H](CCCCN)C(=O)N[C@@H](CCC(=O)O)C(N)=O)[C@@H](C)O)NC(=O)[C@H](CCCNC(=N)N)NC(=O)[C@H](Cc2c[nH]cn2)NC(=O)[C@H](CCC(=O)O)NC(=O)CNC(=O)[C@H](Cc2c[nH]c3ccccc23)NC(=O)[C@H](CC(=O)O)NC(=O)[C@H](CCC(N)=O)NC(=O)[C@H](Cc2c[nH]c3ccccc23)NC1=O
B6: Compound 34 (peptide)
peptide: Ac-EICIWQDWGEHRCTEGE-NH2
modifications: disulfide 3-13
SMILES: CC[C@H](C)[C@@H]1NC(=O)[C@@H](NC(=O)[C@@H](NC(=O)[C@H](CCC(=O)O)NC(C)=O)[C@@H](C)CC)CSSC[C@@H](C(=O)N[C@H](C(=O)N[C@@H](CCC(=O)O)C(=O)NCC(=O)N[C@@H](CCC(=O)O)C(N)=O)[C@@H](C)O)NC(=O)[C@H](CCCNC(=N)N)NC(=O)[C@H](Cc2c[nH]cn2)NC(=O)[C@H](CCC(=O)O)NC(=O)CNC(=O)[C@H](Cc2c[nH]c3ccccc23)NC(=O)[C@H](CC(=O)O)NC(=O)[C@H](CCC(N)=O)NC(=O)[C@H](Cc2c[nH]c3ccccc23)NC1=O
B7: Compound 35 (peptide)
peptide: Ac-EGEICIWQDWGEHRCEGE-NH2
modifications: disulfide 5-15
SMILES: CC[C@H](C)[C@@H]1NC(=O)[C@@H](NC(=O)[C@@H](NC(=O)[C@H](CCC(=O)O)NC(=O)CNC(=O)[C@H](CCC(=O)O)NC(C)=O)[C@@H](C)CC)CSSC[C@@H](C(=O)N[C@@H](CCC(=O)O)C(=O)NCC(=O)N[C@@H](CCC(=O)O)C(N)=O)NC(=O)[C@H](CCCNC(=N)N)NC(=O)[C@H](Cc2c[nH]cn2)NC(=O)[C@H](CCC(=O)O)NC(=O)CNC(=O)[C@H](Cc2c[nH]c3ccccc23)NC(=O)[C@H](CC(=O)O)NC(=O)[C@H](CCC(N)=O)NC(=O)[C@H](Cc2c[nH]c3ccccc23)NC1=O
B8: Compound 30 (peptide)
peptide: Ac-EGEICIWQDWGEHRCT-NH2
modifications: disulfide 5-15
SMILES: CC[C@H](C)[C@@H]1NC(=O)[C@@H](NC(=O)[C@@H](NC(=O)[C@H](CCC(=O)O)NC(=O)CNC(=O)[C@H](CCC(=O)O)NC(C)=O)[C@@H](C)CC)CSSC[C@@H](C(=O)N[C@H](C(N)=O)[C@@H](C)O)NC(=O)[C@H](CCCNC(=N)N)NC(=O)[C@H](Cc2c[nH]cn2)NC(=O)[C@H](CCC(=O)O)NC(=O)CNC(=O)[C@H](Cc2c[nH]c3ccccc23)NC(=O)[C@H](CC(=O)O)NC(=O)[C@H](CCC(N)=O)NC(=O)[C@H](Cc2c[nH]c3ccccc23)NC1=O
B9: Compound 32 (peptide)
peptide: Ac-SEICIWQDWGEHRCTEA-NH2
modifications: disulfide 4-14
SMILES: CC[C@H](C)[C@@H]1NC(=O)[C@@H](NC(=O)[C@@H](NC(=O)[C@H](CCC(=O)O)NC(=O)[C@H](CO)NC(C)=O)[C@@H](C)CC)CSSC[C@@H](C(=O)N[C@H](C(=O)N[C@@H](CCC(=O)O)C(=O)N[C@@H](C)C(N)=O)[C@@H](C)O)NC(=O)[C@H](CCCNC(=N)N)NC(=O)[C@H](Cc2c[nH]cn2)NC(=O)[C@H](CCC(=O)O)NC(=O)CNC(=O)[C@H](Cc2c[nH]c3ccccc23)NC(=O)[C@H](CC(=O)O)NC(=O)[C@H](CCC(N)=O)NC(=O)[C@H](Cc2c[nH]c3ccccc23)NC1=O
B10: Compound 31 (peptide)
peptide: Ac-ESEICIWQDWGEHRCT-NH2
modifications: disulfide 5-15
SMILES: CC[C@H](C)[C@@H]1NC(=O)[C@@H](NC(=O)[C@@H](NC(=O)[C@H](CCC(=O)O)NC(=O)[C@H](CO)NC(=O)[C@H](CCC(=O)O)NC(C)=O)[C@@H](C)CC)CSSC[C@@H](C(=O)N[C@H](C(N)=O)[C@@H](C)O)NC(=O)[C@H](CCCNC(=N)N)NC(=O)[C@H](Cc2c[nH]cn2)NC(=O)[C@H](CCC(=O)O)NC(=O)CNC(=O)[C@H](Cc2c[nH]c3ccccc23)NC(=O)[C@H](CC(=O)O)NC(=O)[C@H](CCC(N)=O)NC(=O)[C@H](Cc2c[nH]c3ccccc23)NC1=O

The experiment deals with Human C3 (Complement tech cat #A113c) (human, UniProt P01024 23-1663). Briefly: cell-based or functional assay.
Sequence of Human C3 (Complement tech cat #A113c) (P01024 23-1663 limits assumed): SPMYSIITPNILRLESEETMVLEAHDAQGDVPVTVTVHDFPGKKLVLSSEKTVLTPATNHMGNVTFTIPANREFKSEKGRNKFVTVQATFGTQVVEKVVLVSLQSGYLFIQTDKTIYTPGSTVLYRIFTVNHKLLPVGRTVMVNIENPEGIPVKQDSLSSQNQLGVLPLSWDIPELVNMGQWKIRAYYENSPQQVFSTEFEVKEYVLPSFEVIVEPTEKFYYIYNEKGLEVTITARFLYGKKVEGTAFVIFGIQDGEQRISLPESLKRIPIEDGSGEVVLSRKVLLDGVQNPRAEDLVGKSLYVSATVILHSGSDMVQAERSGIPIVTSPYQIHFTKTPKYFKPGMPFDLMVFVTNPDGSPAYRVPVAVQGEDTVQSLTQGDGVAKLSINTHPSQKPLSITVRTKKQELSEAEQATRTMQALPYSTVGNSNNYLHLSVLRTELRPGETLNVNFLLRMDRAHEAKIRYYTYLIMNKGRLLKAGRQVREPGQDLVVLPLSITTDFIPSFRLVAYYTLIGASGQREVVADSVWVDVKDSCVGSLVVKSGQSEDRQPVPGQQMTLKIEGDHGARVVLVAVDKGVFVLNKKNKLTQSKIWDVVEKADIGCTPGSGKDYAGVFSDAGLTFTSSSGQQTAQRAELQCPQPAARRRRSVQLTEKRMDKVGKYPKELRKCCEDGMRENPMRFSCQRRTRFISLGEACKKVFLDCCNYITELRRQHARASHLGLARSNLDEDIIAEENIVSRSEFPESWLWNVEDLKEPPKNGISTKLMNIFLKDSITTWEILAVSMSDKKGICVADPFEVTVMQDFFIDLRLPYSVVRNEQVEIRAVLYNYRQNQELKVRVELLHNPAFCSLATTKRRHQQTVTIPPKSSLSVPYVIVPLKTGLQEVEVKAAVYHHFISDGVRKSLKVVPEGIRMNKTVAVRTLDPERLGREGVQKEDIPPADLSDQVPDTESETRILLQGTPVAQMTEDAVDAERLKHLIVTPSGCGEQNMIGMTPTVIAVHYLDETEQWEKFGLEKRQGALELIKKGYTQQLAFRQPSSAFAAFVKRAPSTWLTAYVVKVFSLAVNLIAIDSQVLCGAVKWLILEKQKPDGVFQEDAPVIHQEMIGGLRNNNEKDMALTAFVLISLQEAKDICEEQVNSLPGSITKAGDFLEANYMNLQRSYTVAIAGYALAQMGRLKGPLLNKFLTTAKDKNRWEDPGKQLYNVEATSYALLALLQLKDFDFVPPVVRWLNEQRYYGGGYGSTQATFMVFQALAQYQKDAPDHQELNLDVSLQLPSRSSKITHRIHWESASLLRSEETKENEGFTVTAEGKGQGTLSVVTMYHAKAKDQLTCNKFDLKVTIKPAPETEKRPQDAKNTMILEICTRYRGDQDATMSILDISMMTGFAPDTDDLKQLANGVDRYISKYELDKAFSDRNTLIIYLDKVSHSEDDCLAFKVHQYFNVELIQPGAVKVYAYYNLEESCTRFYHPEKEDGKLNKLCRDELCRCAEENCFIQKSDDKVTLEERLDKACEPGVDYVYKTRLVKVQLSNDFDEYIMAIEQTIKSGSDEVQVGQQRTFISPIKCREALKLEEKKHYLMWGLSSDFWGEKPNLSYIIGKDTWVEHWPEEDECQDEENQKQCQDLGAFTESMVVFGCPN
For the molecule B1, the “inhibition of hemolysis IC50” value is less than 100 nM.

B2: the “inhibition of hemolysis IC50” value is less than 250 nM.

Regarding B3, the “inhibition of hemolysis IC50” value is less than 100 nM.

Regarding B4, the “inhibition of hemolysis IC50” value was less than 100 nM.

With B5, the “inhibition of hemolysis IC50” value is less than 250 nM.

As for B6, the “inhibition of hemolysis IC50” value was less than 250 nM.

In the case of B7, the “inhibition of hemolysis IC50” value was less than 500 nM.

Regarding B8, the “inhibition of hemolysis IC50” value is less than 100 nM.

For the molecule B9, the “inhibition of hemolysis IC50” value is less than 100 nM.

For the molecule B10, the “inhibition of hemolysis IC50” value is less than 100 nM.
